Reference: US12576154B2, “Conjugates of PSMA-binding moieties with cytotoxic agents” (PHILOCHEM AG, priority 2022, dated 2026)

Assays:
HT1080.hPSMA tumor = assay: MMAE release from conjugates in HT1080.hPSMA tumor model (comparison and timepoint study); format: in vivo, mice; conditions: 250 nmol/kg; for MMAE release compared with Conjugate 1: 24 h after intravenous injection, HT1080.hPSMA tumor model
Protocol: (§1) HT1080.hPSMA tumor cells were grown to 90% confluence and detached with Trypsin-EDTA 0.05%. Cells were resuspended in Hank's Balanced Salt Solution (HBSS) at a density of 5×10^7 cells/mL. 100 μL of HT1080.hPSMA cells (5×10^6 cells) were injected subcutaneously in the right flank of female athymic Balb/c AnNRj-Foxn1 mice (6 to 8 weeks of age). Tumors were grown until ˜250 mm^3 volume (average).
Comparison study: 0.1 mL of 50 μM solutions (2% DMSO, PBS, 250 nmol/kg) of the four conjugates (1 to 4) were injected intravenously. The animals were sacrificed in groups of 3 after 24 h, and blood and the following organs were extracted: HT1080.hPSMA tumor, heart, lungs, liver, kidney, spleen, stomach. The blood fraction was centrifuged, and the plasma (supernatant) was extracted. The organs were stored at −80° C. before being used for further analysis.
Timepoint study: 0.1 mL of a 50 μM solution (2% DMSO, PBS, 250 nmol/kg) of conjugate 1 was injected intravenously into the tail vein of the mice. The animals were sacrificed in groups of 3 after 6 h, 24 h, 48 h, and 72 h, and blood and the following organs were extracted: HT1080.hPSMA tumor, heart, lungs, liver, kidney, spleen, stomach. The blood fraction was centrifuged, and the plasma (supernatant) was extracted. The organs were stored at −80° C. before being used for further analysis.
Frozen plasma (50 μL) and mouse tissues (˜50 mg) were thawed, and 500 μL of PBS was added. Samples were kept on ice, and 50 μL solution of internal standard (d8-MMAE, 50 nM) was added. Samples were then homogenized at 4° C. with a tissue lyser for 2 minutes at 30 Hz for 4 cycles. After homogenization, samples were centrifuged (21'000 g, 10 min). Subsequently, 100 μL of supernatants were collected and added to 900 μL of acetonitrile (ACN) to induce protein precipitation. After centrifugation (21'000 g, 10 min), 800 μL of supernatants were collected and dried at room temperature with a vacuum centrifuge. Pellets were then resuspended in 20 μL of an aqueous solution containing 3% ACN and 0.1% of HCOOH, and 5 μL were injected into the UHPLC-MS system. Chromatographic separation was carried out on a Hypersil Gold C18 column (100 mm×2.1 mm, 1.9 μm particle size, 175 Å pore size) column temperature was set at 50° C. and a flow rate of 700 μL/min with a gradient program from 95% A (water+0.1% HCOOH), 5% B (ACN+0.1% HCOOH) to 35% of A in 2.5 minutes, from 35% A to 5% A in 0.4 minutes and 5% A was kept for 1.3 minutes before reconditioning at 95% A. The LC system was coupled to a Q-Exactive mass spectrometer via an Ion Max HESI Source. Ionization was carried out with a spray voltage of 3.5 kV; Sheath gas 40 units; Aux gas 10 units; capillary temperature of 380° C.; Aux gas temperature 450° C.; S-lens RF level 60. The mass spectrometer was operating in targeted Single Ion Monitoring mode (t-SIM) following the molecular ion 718.5113 m/z. The detector was working in positive ionization mode with the following parameters: resolution 70'000 (FWHM at 200 m/z); AGC target of 5×10^4; maximum injection time of 200 ms; isolation window 14 m/z; isolation offset 5 m/z. Peak areas of analytes and internal standards were integrated, and corresponding ratios were calculated. The ratios were then transformed into pmol/g of wet tissue using single-concentration external calibration points and corrected by the total weight of the sample analysed. The percentage of injected dose per gram (% ID/g) was finally calculated by normalizing the value based on the total dose injected into the mouse. Data analysis was performed with Skyline v22.2.0.351.

LNCaP tumor (PSMA+) = assay: MMAE release from conjugates in LNCaP tumor model (biodistribution by LC-MS); format: in vivo, mice; conditions: 24 h after intravenous injection, LNCaP tumor model, n=3
Protocol: LNCaP tumor cells were grown to 80% confluence and detached with Trypsin-EDTA 0.05%. Cells were resuspended in PBS at a density of 30×10^6 cells/mL. The cell suspension was further diluted 1:1 with Matrigel. 200 μL of LNCaP cells (3×10^6 cells) were injected subcutaneously in the left flank of female athymic Balb/c AnNRj-Foxn1 mice (6 to 8 weeks of age). Tumors were grown until volumes of 200-300 mm^3 were observed.
0.1 ml of 50 μM solutions (2% DMSO, PBS) of the four Conjugates (1-4) were injected intravenously into 4 of the mice (1 mouse per SMDC). The animals were sacrificed after 24 h and the following organs were extracted: blood, LNCaP tumor (PSMA+), heart, lungs, liver, kidney, spleen, stomach. The blood fraction was centrifuged, and the plasma (supernatant) was extracted. The organs were preserved at −80° C. before being used for further analysis.
Frozen plasma or mouse tissues (˜50 mg) were thawed and treated with 600 μL of an aqueous solution containing 95% acetonitrile (ACN), and 0.1% HCOOH were added to induce protein precipitation. 50 μL of a solution of d8-MMAE, 50 nM) was added as internal standard. Samples were then homogenized with a tissue lyser for 15 minutes at 30 Hz. After homogenization, samples were centrifuged (21'000 g for 10 minutes). The supernatant was collected and dried at room temperature with a rotary evaporator. Pellets were then resuspended in 1 mL of an aqueous solution containing 3% ACN and 0.1% of TFA and subsequently purified on Oasis HLB SPE columns. Eluates were dried under vacuum at room temperature. […] Peak areas of analytes and internal standards were integrated, and corresponding ratios were calculated. The ratios were then transformed into pmol/g of wet tissue using single-concentration external calibration points and corrected by the total weight of the sample analysed. The percentage of injected dose per gram (% ID/g) was finally calculated by normalizing the value based on the total dose injected into the mouse. […]

HT1080.hPSMA xenografts [1] = assay: Comparative therapy experiment in mice bearing HT1080.hPSMA xenografts (tumor volume); format: in vivo; conditions: 250 nmol/kg i.v. on days 8, 10, 12 after tumor implantation, n=5
Protocol: as §1, with “a” for “a density of”, “cells/mL density.” for “cells/mL.”, “volumes of […].” for “˜250 mm^3 volume (average).”
Tumor-bearing mice were randomized into groups of 5 and 0.1 mL of 50 μM solutions (2% DMSO, PBS, 250 nmol/kg) of the four conjugates (1 to 4), or saline solution (0.9% NaCl) was injected intravenously three times with 1-day break in between (days 8, 10, and 12 after tumor implantation).

HT1080.hPSMA xenografts [2] = assay: Payload study and combination therapy with L19-IL2 in HT1080.hPSMA tumor model (tumor volume); format: in vivo, mice; conditions: conjugates 250 nmol/kg i.v. days 7 and 11; L19-IL2 2.5 mg/kg i.v. days 8, 10, 12; n=3/4
Protocol: as §1, with “a” for “a density of”, “cells/mL density.” for “cells/mL.”, “an average volumes of ˜100” for “˜250”, “was reached.” for “volume (average).”
Tumor-bearing mice were randomized into groups of 3 or 4 animals. A 50 μM solution (2% DMSO, 250 nmol/kg; 100 μL) of Conjugate 1, 5, or 6, L19-IL2 (SEQ ID NO: 10, 0.5 mg/mL, 2.5 mg/kg; 100 μL), PBS (100 μL), or L19-IL2 buffer (NaH2PO4 6.7 mM, NaCl 20 mM, KCl 1.8 mM, Mannitol 133 mM, Tween80 0.1% v/v, Glycerol 1% w/v; 100 μL) was injected intravenously (i.e., systemic administration through tail-vein) with the following schedule:
Groups of Conjugates 1, 5, or 6: two separate injections with a 3-day break in between (day 7 and day 11 after tumor implantation).
L19-IL2 group: three separate injections with a 1-day break in between (day 8, day 10, and day 12 after tumor implantation).
Combination therapy groups: two separate injections of Conjugate 1, 5, or 6 with a 3-day break in between (day 7 and day 11 after tumor implantation) and three separate injections of L19-IL2 with a 1-day break in between (day 8, day 10, and day 12 after tumor implantation). […]

Compound: CC[C@H](C)[C@@H]([C@@H](CC(=O)N1CCC[C@H]1[C@H](OC)[C@@H](C)C(=O)N[C@H](C)[C@@H](O)c1ccccc1)OC)N(C)C(=O)[C@@H](NC(=O)[C@H](C(C)C)N(C)C(=O)OCc1ccc(NC(=O)[C@H](CCCNC(N)=O)NC(=O)[C@@H](NC(=O)CCCCCN2C(=O)CC(SC[C@H](N)C(=O)NCCCCCC(=O)NC[C@H]3CC[C@H](C(=O)N[C@@H](Cc4ccc5ccccc5c4)C(=O)NCCCC[C@H](NC(=O)N[C@@H](CCC(=O)O)C(=O)O)C(=O)O)CC3)C2=O)C(C)C)cc1)C(C)C (stereo partly drawn) [Conjugate 2]
- MMAE release compared with Conjugate 1 (HT1080.hPSMA tumor): significantly lower or no release of MMAE
- MMAE release in tumor (HT1080.hPSMA tumor; 24 hours after intravenous injection, HT1080.hPSMA tumor, n=3): 1.7 % ID/g
- MMAE release, experiment repeated with three mice each (LNCaP tumor (PSMA+)): confirmed
- Therapeutic efficacy (tumor volume change) (HT1080.hPSMA xenografts [1]): tumor growth retardation but did not lead to shrinkage of the tumor mass

Compound: CC[C@H](C)[C@@H]([C@@H](CC(=O)N1CCC[C@H]1[C@H](OC)[C@@H](C)C(=O)N[C@H](C)[C@@H](O)c1ccccc1)OC)N(C)C(=O)[C@@H](NC(=O)[C@H](C(C)C)N(C)C(=O)OCCSSC[C@H](N)C(=O)NCCCCCC(=O)NC[C@H]1CC[C@H](C(=O)N[C@@H](Cc2ccc3ccccc3c2)C(=O)NCCCC[C@H](NC(=O)N[C@@H](CCC(=O)O)C(=O)O)C(=O)O)CC1)C(C)C [Conjugate 3]
- MMAE release compared with Conjugate 1 (HT1080.hPSMA tumor): significantly lower or no release of MMAE
- Therapeutic efficacy (tumor volume change) (HT1080.hPSMA xenografts [1]): didn't display any therapeutic efficacy

Compound: CC[C@H](C)[C@@H]([C@@H](CC(=O)N1CCC[C@H]1[C@H](OC)[C@@H](C)C(=O)N[C@H](C)[C@@H](O)c1ccccc1)OC)N(C)C(=O)[C@@H](NC(=O)[C@H](C(C)C)N(C)C(=O)CCCCCN1C(=O)CC(SC[C@H](N)C(=O)NCCCCCC(=O)NC[C@H]2CC[C@H](C(=O)N[C@@H](Cc3ccc4ccccc4c3)C(=O)NCCCC[C@H](NC(=O)N[C@@H](CCC(=O)O)C(=O)O)C(=O)O)CC2)C1=O)C(C)C (stereo partly drawn) [Conjugate 4]
- MMAE release compared with Conjugate 1 (HT1080.hPSMA tumor): significantly lower or no release of MMAE
- Therapeutic efficacy (tumor volume change) (HT1080.hPSMA xenografts [1]): didn't display any therapeutic efficacy

Compound: L19-IL2: Immunocytokine: L19-derived scFv (binds ED-B domain of fibronectin) linked to IL2, SEQ ID NO: 10 [Conjugate L19-IL2]
- In vivo anti-tumor activity, monotherapy (tumor volume) (HT1080.hPSMA xenografts [2]): only a slight tumor growth retardation
